Results reported in patent US20250145729A1 (DENALI THERAPEUTICS, published 2025).

Columns and labels:
[1] = target: T1, circularly permuted human TfR apical domain (human); experiment: method not named for this table (Biacore elsewhere)
T1 construct: TfR residues 326-379 stand N-terminal to 194-296, loop 297-325 deleted; also called huTfR Apical Domain
T1 chain: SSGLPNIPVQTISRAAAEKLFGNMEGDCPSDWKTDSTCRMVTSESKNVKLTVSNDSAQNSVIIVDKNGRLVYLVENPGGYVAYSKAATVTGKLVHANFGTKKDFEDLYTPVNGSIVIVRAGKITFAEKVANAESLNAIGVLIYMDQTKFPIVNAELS

[2] = target: T2, circularly permuted cyno TfR apical domain (cynomolgus monkey); experiment: as above
T2 construct: same design as the human construct; also called cyTfR Apical Domain; cynomolgus TfR apical domain
T2 chain: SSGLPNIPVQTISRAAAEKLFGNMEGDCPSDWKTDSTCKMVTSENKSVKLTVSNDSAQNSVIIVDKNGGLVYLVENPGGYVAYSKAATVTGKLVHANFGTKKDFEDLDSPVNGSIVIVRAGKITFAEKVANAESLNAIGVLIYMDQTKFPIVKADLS

[3] = target: T3, human CD98hc (human, UniProt P08195 109-529); experiment: SPR (Biacore); format not stated
T3 construct: The construct used on the Biacore is not described; also called CD98 heavy chain; 4F2 heavy chain
T3 sequence: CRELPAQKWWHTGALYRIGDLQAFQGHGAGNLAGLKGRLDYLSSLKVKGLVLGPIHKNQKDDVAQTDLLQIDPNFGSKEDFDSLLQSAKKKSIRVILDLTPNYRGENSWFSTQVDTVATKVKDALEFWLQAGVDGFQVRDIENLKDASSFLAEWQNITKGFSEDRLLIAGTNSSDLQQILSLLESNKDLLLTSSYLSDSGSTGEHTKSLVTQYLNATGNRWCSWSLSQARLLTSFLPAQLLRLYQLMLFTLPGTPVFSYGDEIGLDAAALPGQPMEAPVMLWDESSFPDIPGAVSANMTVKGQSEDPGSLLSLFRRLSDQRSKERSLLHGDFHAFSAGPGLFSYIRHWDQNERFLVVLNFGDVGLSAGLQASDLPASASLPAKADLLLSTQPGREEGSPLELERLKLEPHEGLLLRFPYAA
Experimental: A second round of affinity maturation using phage display was performed to increase the affinity of the LLB1 family to CD98hc (Table 11). The backbone of the library was the clone LLB1-3. Library LLB1-AM3 expands the library positions from the original clone using NHK or ARY. Library LLB1-AM4 expands the libraries and includes a mixture of residues that were found previously at those positions in the LLB1 family. The library was assembled using Kunkel mutagenesis and screened to human CD98hc. […] The format was anti-BACE1 Fabs having full effector function and in a bivalent format (i.e., no knob and hole mutations). Cell binding of the clones was also tested in HeLa cells for huCD98hc binding, CHO:cyCD98hc cells for cyno binding, and CHO cells as a negative control.

B1: 42.2.3.4 mono (Fc fusion)
chain 1: APEAAGGPSVFLFPPKPKDTLMISRTPEVTCVVVDVSHEDPEVKFNWYVDGVEVHNAKTKPREEQYNSTYRVVSVLTVLHQDWLNGKEYKCKVSNKALGAPIEKTISKAKGQPREPQVYTLPPSRDELTKNQVSLWCLVKGFYPSDIAVEWFAGGGKETNYKTTPPVLDSDGSFFLYSKLTVDKSRWQQGNLFACEVMHEALHNHYTYKLLSLSPGK
chain 2: APEAAGGPSVFLFPPKPKDTLMISRTPEVTCVVVDVSHEDPEVKFNWYVDGVEVHNAKTKPREEQYNSTYRVVSVLTVLHQDWLNGKEYKCKVSNKALGAPIEKTISKAKGQPREPQVYTLPPSRDELTKNQVSLSCAVKGFYPSDIAVEWESNGQPENNYKTTPPVLDSDGSFFLVSKLTVDKSRWQQGNVFSCSVMHEALHNHYTQKSLSLSPGK
notes: knob+P329G+LALA with TfR site, hole+P329G+LALA without
Kd [1]: 181 nM
Kd [2]: 4000 nM

B2: 42.2.19 mono (Fc fusion)
chain 1: APEAAGGPSVFLFPPKPKDTLMISRTPEVTCVVVDVSHEDPEVKFNWYVDGVEVHNAKTKPREEQYNSTYRVVSVLTVLHQDWLNGKEYKCKVSNKALGAPIEKTISKAKGQPREPQVYTLPPSRDELTKNQVSLWCLVKGFYPSDIAVEWFYDDSKLTNYKTTPPVLDSDGSFFLYSKLTVDKSRWQPRGLFACEVMHEALHNHYTYKLLGESPGK
chain 2: APEAAGGPSVFLFPPKPKDTLMISRTPEVTCVVVDVSHEDPEVKFNWYVDGVEVHNAKTKPREEQYNSTYRVVSVLTVLHQDWLNGKEYKCKVSNKALGAPIEKTISKAKGQPREPQVYTLPPSRDELTKNQVSLSCAVKGFYPSDIAVEWESNGQPENNYKTTPPVLDSDGSFFLVSKLTVDKSRWQQGNVFSCSVMHEALHNHYTQKSLSLSPGK
notes: as for B1
Kd [1]: 79 nM
Kd [2]: 1100 nM

B3: 42.2.3.5 mono (Fc fusion)
chain 1: APEAAGGPSVFLFPPKPKDTLMISRTPEVTCVVVDVSHEDPEVKFNWYVDGVEVHNAKTKPREEQYNSTYRVVSVLTVLHQDWLNGKEYKCKVSNKALGAPIEKTISKAKGQPREPQVYTLPPSRDELTKNQVSLWCLVKGFYPSDIAVEWFYGNGKETNYKTTPPVLDSDGSFFLYSKLTVDKSRWQQGNLFACEVMHEALHNHYTYKLLSLSPGK
chain 2: APEAAGGPSVFLFPPKPKDTLMISRTPEVTCVVVDVSHEDPEVKFNWYVDGVEVHNAKTKPREEQYNSTYRVVSVLTVLHQDWLNGKEYKCKVSNKALGAPIEKTISKAKGQPREPQVYTLPPSRDELTKNQVSLSCAVKGFYPSDIAVEWESNGQPENNYKTTPPVLDSDGSFFLVSKLTVDKSRWQQGNVFSCSVMHEALHNHYTQKSLSLSPGK
notes: as for B1
Kd [1]: 260 nM
Kd [2]: 1800 nM

B4: 42.2.5.4 mono (Fc fusion)
chain 1: APEAAGGPSVFLFPPKPKDTLMISRTPEVTCVVVDVSHEDPEVKFNWYVDGVEVHNAKTKPREEQYNSTYRVVSVLTVLHQDWLNGKEYKCKVSNKALGAPIEKTISKAKGQPREPQVYTLPPSRDELTKNQVSLWCLVKGFYPSDIAVEWFSDGSKETNYKTTPPVLDSDGSFFLYSKLTVDKSRWQQQGLFACEVMHEALHNHYTYKLLGYSPGK
chain 2: APEAAGGPSVFLFPPKPKDTLMISRTPEVTCVVVDVSHEDPEVKFNWYVDGVEVHNAKTKPREEQYNSTYRVVSVLTVLHQDWLNGKEYKCKVSNKALGAPIEKTISKAKGQPREPQVYTLPPSRDELTKNQVSLSCAVKGFYPSDIAVEWESNGQPENNYKTTPPVLDSDGSFFLVSKLTVDKSRWQQGNVFSCSVMHEALHNHYTQKSLSLSPGK
notes: as for B1
Kd [1]: 400 nM
Kd [2]: 6500 nM

B5: 42.2.7.2 mono (Fc fusion)
chain 1: APEAAGGPSVFLFPPKPKDTLMISRTPEVTCVVVDVSHEDPEVKFNWYVDGVEVHNAKTKPREEQYNSTYRVVSVLTVLHQDWLNGKEYKCKVSNKALGAPIEKTISKAKGQPREPQVYTLPPSRDELTKNQVSLWCLVKGFYPSDIAVEWFSDGSKETNYKTTPPVLDSDGSFFLYSKLTVDKSRWQQGNLFACEVMHEALEGHYTYKLLSLSPGK
chain 2: APEAAGGPSVFLFPPKPKDTLMISRTPEVTCVVVDVSHEDPEVKFNWYVDGVEVHNAKTKPREEQYNSTYRVVSVLTVLHQDWLNGKEYKCKVSNKALGAPIEKTISKAKGQPREPQVYTLPPSRDELTKNQVSLSCAVKGFYPSDIAVEWESNGQPENNYKTTPPVLDSDGSFFLVSKLTVDKSRWQQGNVFSCSVMHEALHNHYTQKSLSLSPGK
notes: M428 kept here
Kd [1]: 162 nM
Kd [2]: 10000 nM

B6: 42.2.5.2 mono (Fc fusion)
chain 1: APEAAGGPSVFLFPPKPKDTLMISRTPEVTCVVVDVSHEDPEVKFNWYVDGVEVHNAKTKPREEQYNSTYRVVSVLTVLHQDWLNGKEYKCKVSNKALGAPIEKTISKAKGQPREPQVYTLPPSRDELTKNQVSLWCLVKGFYPSDIAVEWFSDGSKETNYKTTPPVLDSDGSFFLYSKLTVDKSRWQPRGLFACEVMHEALHNHYTYKLLGESPGK
chain 2: APEAAGGPSVFLFPPKPKDTLMISRTPEVTCVVVDVSHEDPEVKFNWYVDGVEVHNAKTKPREEQYNSTYRVVSVLTVLHQDWLNGKEYKCKVSNKALGAPIEKTISKAKGQPREPQVYTLPPSRDELTKNQVSLSCAVKGFYPSDIAVEWESNGQPENNYKTTPPVLDSDGSFFLVSKLTVDKSRWQQGNVFSCSVMHEALHNHYTQKSLSLSPGK
notes: as for B1
Kd [1]: 180 nM
Kd [2]: 2000 nM

B7: LLB1-3-16-2 (Fc fusion)
chain: APELLGGPSVFLFPPKPKDTLMISRTPEVTCVVVDVSHEDPEVKFNWYVDGVEVHNAKTKPREEQYNSTYRVVSVLTVLHQDWLNGKEYKCKVSNKALPAPIEKTISKAKGQPREPQVYTLPPSRDELTKNQVSLTCLVKGFYPSDIAVEWRTYKPYETNYKTTPPVLDSDGSFFLYSKLTVDKSRWQQGDIFVCDVMHEALHNHFTIKKLSLSPGK
Kd [3]: 175 nM

B8: LLB1-3-4-1 (Fc fusion)
chain: APELLGGPSVFLFPPKPKDTLMISRTPEVTCVVVDVSHEDPEVKFNWYVDGVEVHNAKTKPREEQYNSTYRVVSVLTVLHQDWLNGKEYKCKVSNKALPAPIEKTISKAKGQPREPQVYTLPPSRDELTKNQVSLTCLVKGFYPSDIAVEWRTYKPYENNYKTTPPVLDSDGSFFLYSKLTVDKSRWQQGNIFVCDVMHEALHNHYTIKKLSLSPGK
Kd [3]: 880 nM

B9: LLB1-3-31-2 (Fc fusion)
chain: APELLGGPSVFLFPPKPKDTLMISRTPEVTCVVVDVSHEDPEVKFNWYVDGVEVHNAKTKPREEQYNSTYRVVSVLTVLHQDWLNGKEYKCKVSNKALPAPIEKTISKAKGQPREPQVYTLPPSRDELTKNQVSLTCLVKGFYPSDIAVEWRTYKPYETNYKTTPPVLDSDGSFFLYSKLTVDKSRWQQGDIFVCDVMHEALHNHFTIKSLSLSPGK
Kd [3]: 1200 nM

B10: LLB1-3-16 (Fc fusion)
chain: APELLGGPSVFLFPPKPKDTLMISRTPEVTCVVVDVSHEDPEVKFNWYVDGVEVHNAKTKPREEQYNSTYRVVSVLTVLHQDWLNGKEYKCKVSNKALPAPIEKTISKAKGQPREPQVYTLPPSRDELTKNQVSLTCLVKGFYPSDIAVEWRTYKPYETNYKTTPPVLDSDGSFFLYSKLTVDKSRWQQGDIFVCDVLHEALHNHFTIKKLSLSPGK
notes: also called Clone 1-3-16; LLB1-1-3-16
Kd [3]: 32 nM

B11: LLB1-3-14-1 (Fc fusion)
chain: APELLGGPSVFLFPPKPKDTLMISRTPEVTCVVVDVSHEDPEVKFNWYVDGVEVHNAKTKPREEQYNSTYRVVSVLTVLHQDWLNGKEYKCKVSNKALPAPIEKTISKAKGQPREPQVYTLPPSRDELTKNQVSLTCLVKGFYPSDIAVEWRSYKPYENNYKTTPPVLDSDGSFFLYSKLTVDKSRWQQGDIFVCDVLHEALHNHYTIKKLSLSPGK
Kd [3]: 330 nM

B12: LLB1-3-10-1 (Fc fusion)
chain: APELLGGPSVFLFPPKPKDTLMISRTPEVTCVVVDVSHEDPEVKFNWYVDGVEVHNAKTKPREEQYNSTYRVVSVLTVLHQDWLNGKEYKCKVSNKALPAPIEKTISKAKGQPREPQVYTLPPSRDELTKNQVSLTCLVKGFYPSDIAVEWRSYKPYENNYKTTPPVLDSDGSFFLYSKLTVDKSRWQQGNIFVCDVLHEALHNHYTIKKLSLSPGK
Kd [3]: 470 nM

B13: LLB1-3 D380E (Fc fusion)
chain: APELLGGPSVFLFPPKPKDTLMISRTPEVTCVVVDVSHEDPEVKFNWYVDGVEVHNAKTKPREEQYNSTYRVVSVLTVLHQDWLNGKEYKCKVSNKALPAPIEKTISKAKGQPREPQVYTLPPSRDELTKNQVSLTCLVKGFYPSDIAVEWRSYKPYENNYKTTPPVLDSDGSFFLYSKLTVDKSRWQQGNIFVCDVMHEALHNHYTIKKLSLSPGK
Kd [3]: 1000 nM

B14: LLB1-3-25-1 (Fc fusion)
chain: APELLGGPSVFLFPPKPKDTLMISRTPEVTCVVVDVSHEDPEVKFNWYVDGVEVHNAKTKPREEQYNSTYRVVSVLTVLHQDWLNGKEYKCKVSNKALPAPIEKTISKAKGQPREPQVYTLPPSRDELTKNQVSLTCLVKGFYPSDIAVEWRTYKPYETNYKTTPPVLDSDGSFFLYSKLTVDKSRWQQGDIFVCDVLHEALHNHFTIKKLSLSPGK
notes: a difference, if any, lies outside the printed positions
Kd [3]: 42 nM
